B1: 35-E11: P450 BM-3 variant, SEQ ID NO:7: 53-5H substitutions plus E464G and I710T (protein)
chain: TIKEMPQPKTFGELKNLPLLNTDKPVQALMKIADELGEIFKFEAPGCVTRYLSSQRLIKEACDESRFDKNLSQALKFFRDFSGDGLFTSWTHEINWKKAHNILLPSFSQQAMKGYHAMMVDIAVQLVQKWERLNADEHIEVSEDMTRLTLDTIGLCGFNYRFNSFYRDQPHPFIISMVRALDEVMNKLQRANPDDPAYDENKRQCQEDIKVMNDLVDKIIADRKARGEQSDDLLTQMLNGKDPETGEPLDDGNISYQIITFLIAGHETTSGLLSFALYFLVKNPHVLQKVVEEAARVLVDPVPSYKQVKQLKYVGMVLNEALRLWPTFPAFSLYAKEDTVLGGEYPLEKGDEVMVLIPQLHRDKTIWGDDVEEFRPERFENPSAIPQHAFKPFGNGQRACIGQQFALHEATLVLGMMLKHFDFEDHTNYELDIKETLTLKPEGFVVKAKSKKIPLGGIPSPSTGQSAKKVRKKAENAHNTPLLVLYGSNMGTAEGTARDLADIAMSKGFAPQVATLDSHAGNLPREGAVLIVTASYNGHPPDNAKQFVDWLDQASADEVKGVRYSVFGCGDKNWATTYQKVPAFIDETLAAKGAENIADRGEADASDDFEGTYEEWREHMWSDVAAYFNLDIENSEDNKSTLSLQFVDSAADMPLAKMHGAFSTNVVASKELQQPGSARSTRHLEIELPKEASYQEGDHLGVIPRNYEGTVNRVTARFGLDASQQIRLEAEEEKLAHLPLAKTVSVEELLQYVELQDPVTRTQLRAMAAKTVCPPHKVELEALLEKQAYKEQVLAKRLTMLELLEKYPACEMKFSEFIALLPSIRPRYYSISSSPRVDEKQASITVSVVSGEAWSGYGEYKGIASNYLAELQEGDTITCFISTPQSEFTLPKDPETPLIMVGPGTGVAPFRGFVQARKQLKEQGQSLGEAHLYFGCRSPHEDYLYQEELENAQSEGIITLHTAFSRMPNQPKTYVQHVMEQDGKKLIELLDQGAHFYICGDGSQMAPAVEATLMKSYADVHQVSEADARLWLQQLEEKGRYAKDVWAG
modifications: mutant P450 35-E11 protein sequence
B2: Wild-type BM-3: wild-type cytochrome P450 BM-3 from Bacillus megaterium, SEQ ID NO:1 (protein, listed as Bacillus megaterium)
chain: TIKEMPQPKTFGELKNLPLLNTDKPVQALMKIADELGEIFKFEAPGRVTRYLSSQRLIKEACDESRFDKNLSQALKFVRDFAGDGLFTSWTHEKNWKKAHNILLPSFSQQAMKGYHAMMVDIAVQLVQKWERLNADEHIEVPEDMTRLTLDTIGLCGFNYRFNSFYRDQPHPFITSMVRALDEAMNKLQRANPDDPAYDENKRQFQEDIKVMNDLVDKIIADRKASGEQSDDLLTHMLNGKDPETGEPLDDENIRYQIITFLIAGHETTSGLLSFALYFLVKNPHVLQKAAEEAARVLVDPVPSYKQVKQLKYVGMVLNEALRLWPTAPAFSLYAKEDTVLGGEYPLEKGDELMVLIPQLHRDKTIWGDDVEEFRPERFENPSAIPQHAFKPFGNGQRACIGQQFALHEATLVLGMMLKHFDFEDHTNYELDIKETLTLKPEGFVVKAKSKKIPLGGIPSPSTEQSAKKVRKKAENAHNTPLLVLYGSNMGTAEGTARDLADIAMSKGFAPQVATLDSHAGNLPREGAVLIVTASYNGHPPDNAKQFVDWLDQASADEVKGVRYSVFGCGDKNWATTYQKVPAFIDETLAAKGAENIADRGEADASDDFEGTYEEWREHMWSDVAAYFNLDIENSEDNKSTLSLQFVDSAADMPLAKMHGAFSTNVVASKELQQPGSARSTRHLEIELPKEASYQEGDHLGVIPRNYEGIVNRVTARFGLDASQQIRLEAEEEKLAHLPLAKTVSVEELLQYVELQDPVTRTQLRAMAAKTVCPPHKVELEALLEKQAYKEQVLAKRLTMLELLEKYPACEMKFSEFIALLPSIRPRYYSISSSPRVDEKQASITVSVVSGEAWSGYGEYKGIASNYLAELQEGDTITCFISTPQSEFTLPKDPETPLIMVGPGTGVAPFRGFVQARKQLKEQGQSLGEAHLYFGCRSPHEDYLYQEELENAQSEGIITLHTAFSRMPNQPKTYVQHVMEQDGKKLIELLDQGAHFYICGDGSQMAPAVEATLMKSYADVHQVSEADARLWLQQLEEKGRYAKDVWAG

Legend:
Type in all cases: biochemical
[1] = Reactions on alkanes, total turnovers (Table 18): hexane; settings: hexane (6 C atoms); for % rel. act.: TTN normalized to the highest value of the variant's series; for TTN: total turnovers, standardized reaction conditions
Procedure: (§1) Reactions on alkanes. Reactions with alkanes from pentane to decane were carried out at 3 mL-scale using 100 mM KPi pH 8.0 buffer containing 2% ethanol (to allow alkane solubilization) and purified protein. 2.5 mL KPi buffer were added with 60 μL of 90 mM alkane solution in ethanol (final conc.=1.8 mM), 150 μL enzyme solution at 1 μM (final conc.=50 nM), and 300 μL NADPH regeneration solution (100 units/mL isocitrate dehydrogenase, 70 mg/mL isocitrate, 1.5 mg/ml NADP^+). Vials were sealed and stirred for 24 hours at 4° C. 1 mL-aliquot of the reaction was removed, added with 10 μl internal standard (25 mM 1-bromohexane in ethanol), and extracted with 200 μl chloroform (30 sec vortexing, 1 min centrifugation at 10000 g). The organic phase was removed and analyzed by gas chromatography. Reactions with ethane, propane, and butane were carried out as described for longer alkanes with the only difference that alkane-saturated KPi buffer was used. Propane reactions with variants from HL5 and L9 libraries were performed on 1 mL-scale reaction using 20 nM enzyme to reduce oxygen limitation. Propane and butane reactions were analyzed by direct injection of reaction solution on the GC using 1-pentanol as internal standard. Ethane reaction products were functionalized (see below) and analyzed by GC using 1-butanol as internal standard. All measurements were performed in triplicate.
(§2) Products from alkane reactions were identified and quantified by gas chromatography using authentic standards and calibration curves with internal standards. For the reactions with alkanes from pentane to decane, GC analyses were carried out using a Shimadzu GC-17A gas chromatograph, Agilent HP5 column (30 m×0.32 mm×0.1 μm film), 1 μL injection, FID detector, and the following separation program: 250° C. inlet, 250° C. detector, 50° C. oven for 3 min, 5° C./min gradient to 100° C., 25° C./min gradient to 230° C., and 230° C. for 3 min. For butane and propane (TTN) reactions, GC analyses were carried out using a Hewlett-Packard 5890 Series II Plus gas chromatograph, Supelco SPB-1 column (60 m×0.52 mm×0.5 μm film), 0.5 μL injection, FID detector, and the following separation program: 250° C. inlet, 275° C. detector, 80° C. oven for 2 min, 10° C./min gradient to 110° C., 25° C./min gradient to 275° C., and 275° C. for 2.5 min. For ethane and propane (rate) reactions, analysis of reaction mixtures was carried out by derivatization to alkyl nitrites followed by GC-ECD analysis. For laurate, reaction product analysis was carried out by derivatization with N-methyl-N-trimethylsilylheptafluorobutyramide followed by extraction with hexane. Organic solutions were analyzed by FID-GC.
(§3) TTNs for each variant-substrate pair were determined using standardized reaction conditions (identical enzyme and substrate concentration, incubation time, cofactor regeneration system) (Table 18). TTN values were used to assess performance because TTN is a cumulative measure of both catalytic and coupling efficiency and because mutants were selected based on improvement in this property. To facilitate comparison among the variants, TTNs were normalized to the highest value in the series (MTN=Maximal Turnover Number) and plotted for the increasing-sized substrates (FIG. 38). A gradual shift of the enzyme's substrate preference during laboratory evolution is evident from these profiles. The marginal activity of wild-type BM3 on these substrates (MTN=150) is restricted to the long-chain alkanes, where it is a promiscuous function of BM3's high C12-C20 fatty acid hydroxylase activity. In the first evolutionary intermediates, substrate preference centers on medium-chain alkanes […], reflecting their selection for activity on octane. In 35E11, selected for activity on propane, preference still centers on C6-C8 alkanes but now extends towards the shorter ones, including propane. Propane activity becomes prevalent with the transition from variant ETS8 to 19A12. […]

[2] = Reactions on alkanes, total turnovers (Table 18): butane; settings: butane (4 C atoms); for TTN: total turnovers, standardized reaction conditions
Procedure: as §1, §2, §3

[3] = Reactions on alkanes, total turnovers (Table 18): decane; settings: decane (10 C atoms); for % rel. act.: TTN normalized to the highest value of the variant's series; for TTN: total turnovers, standardized reaction conditions
Procedure: as §1, §2, §3

[4] = Reactions on alkanes, total turnovers (Table 18): pentane; settings: pentane (5 C atoms); for % rel. act.: TTN normalized to the highest value of the variant's series; for TTN: total turnovers, standardized reaction conditions
Procedure: as §1, §2, §3

[5] = Chloromethane dehalogenation (Purpald detection of formaldehyde)
Source text: The dehalogenation reaction is based on the hydroxylation of the carbon atom carrying the halogen by a spontaneous (base catalyzed) alpha-elimination reaction which leads to the formation of an aldehyde or ketone depending on the starting haloalkane. The expected reaction mechanism for the dehalogenation of a general alpha-haloalkane is described by the scheme:
To test the feasibility of this approach, chloromethane was chosen as substrate for the dehalogenation reaction. Compared to other haloalkanes, chloromethane (CM) has the advantage to be moderately soluble in water (0.5 g/100 ml) and to lead to formaldehyde as end product of the hydroxylation/alpha-elimination reaction. Formaldehyde can be then readily detected by colorimetric reaction with Purpald as described previously. To test the reaction, two BM-3 mutants from later rounds of random mutagenesis, 35-E1141 and 20-D3, were incubated in the presence of CM and a cofactor regeneration system based on NADP^+, glucose-6-phosphate and glucose-6-phosphate dehydrogenase. Reactions with wild-type P450 BM-3 and without enzyme were included as controls.
The reaction was repeated in the presence of additional BM-3 mutants, including 1-8H, 1-12G2 and the wild-type P450 BM-3 in which A328 was substituted with valine (BM-3-A328V) (FIG. 27B). […] Wild-type BM-3 was substituted with other amino acid residues at position […].
The activity of BM-3-A328V on CM and other substrates such as HME, DME, and propane was further investigated by measuring product formation rate, cofactor consumption and coupling efficiency (Table 14). This mutant was also found to be capable to hydroxylate ethane to ethanol, although only for a total of about 5-10 turnovers. In Table 14 “consumption” rates are expressed as nmol NADPH/nmol enzyme/min and “product formation” rates are expressed as nmol product/nmol enzyme/min.

[6] = Reactions on alkanes, total turnovers (Table 18): heptane; settings: heptane (7 C atoms); for % rel. act.: TTN normalized to the highest value of the variant's series; for TTN: total turnovers, standardized reaction conditions
Procedure: as §1, §2, §3

[7] = Reactions on alkanes, total turnovers (Table 18): octane; settings: octane (8 C atoms); for % rel. act.: TTN normalized to the highest value of the variant's series; for TTN: total turnovers, standardized reaction conditions
Procedure: as §1, §2, §3

Molecule	% rel. act. [1] [%]	TTN [1]	TTN [2]	% rel. act. [3] [%]	TTN [3]	% rel. act. [4] [%]	TTN [4]	colorimetric response (Purpald) ([5]; chloromethane, cofactor regeneration system)	% rel. act. [6] [%]	TTN [6]	% rel. act. [7] [%]	TTN [7]	% rel. act. ([2]; TTN normalized to the highest value of the variant's series) [%]	total turnover number on CM ([5]; compared with the other mutants of the study)
B1	100.0	6350 ± 384	5150 ± 104	13.5	860 ± 223	75.6	4800 ± 174	specific colorimetric response	81.4	5170 ± 148	93.7	5950 ± 323		
B2	6.3	10 ± 4	0	100.0	160 ± 95	0.0	0		12.5	20 ± 5	18.8	30 ± 42	0.0	no detectable activity

— patent US12258605B2, “Alkane oxidation by modified hydroxylases” (The California Institute of Technology, priority 2005, dated 2025)
